What was measured:
[1] = molecular target: BDNF pro-peptide, Val66 (wild type; Val-pro-peptide) (UniProt P23560); assay: Surface plasmon resonance (BIAcore 2000); settings: pH 7.4; 20 °C; 0.15 M NaCl; HBS-EP: 0.01 M HEPES (pH 7.4). For Figure 2c the same buffer was adjusted to pH 6.5 or 7.0 with HCl.
[2] = molecular target: BDNF pro-peptide, Met66 (Val66Met polymorphism; Met-pro-peptide) V66M (UniProt P23560); assay: Surface plasmon resonance (BIAcore 2000); settings: pH 7.4; 20 °C; 0.15 M NaCl; HBS-EP: 0.01 M HEPES (pH 7.4). For Figure 2c the same buffer was adjusted to pH 6.5 or 7.0 with HCl.
[3] = molecular target: T1, recombinant wild-type BDNF pro-peptide (Val at position 66) (human, UniProt P23560 19-128); assay: SPR
T1 chain: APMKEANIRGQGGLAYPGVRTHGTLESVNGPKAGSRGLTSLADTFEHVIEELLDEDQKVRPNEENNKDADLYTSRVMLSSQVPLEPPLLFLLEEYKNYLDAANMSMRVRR

[4] = molecular target: T2, recombinant wild-type BDNF pro-peptide (Val at position 66) (human, UniProt P23560 19-128); assay: SPR; BIAcore 2000; BDNF pro-peptide (Val or Met) amine-coupled to a CM5 chip at about 2000 RU; neurotrophins and other proteins flowed over; 20 °C, 20 µL/min; HBS-EP (0.01 M HEPES pH 7.4, 0.15 M NaCl, 3 mM EDTA, 0.005% Surfactant P20); settings: both partners purified
T2 construct: BDNF pro-peptide, residues 19-128 of human precursor BDNF; Vector pET-19b; also called Val-BDNF pro-peptide; Val-pro-peptide; source: E. coli BL21 (DE3) pLysS, purified by liquid chromatography
T2 sequence (looked up): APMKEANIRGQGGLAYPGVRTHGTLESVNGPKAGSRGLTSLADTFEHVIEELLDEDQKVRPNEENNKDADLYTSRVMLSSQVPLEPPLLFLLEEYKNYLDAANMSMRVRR

[5] = molecular target: T3, recombinant BDNF pro-peptide with the Met substitution at position 66 (Val66Met) (human, UniProt P23560 19-128, Val66Met); assay: as above; settings: both partners purified
T3 construct: BDNF pro-peptide, residues 19-128 of human precursor BDNF, with the common polymorphism Val66Met; Vector pET-19b; also called Met-BDNF pro-peptide; Met-pro-peptide; source: E. coli BL21 (DE3) pLysS, purified by liquid chromatography
T3 sequence (looked up): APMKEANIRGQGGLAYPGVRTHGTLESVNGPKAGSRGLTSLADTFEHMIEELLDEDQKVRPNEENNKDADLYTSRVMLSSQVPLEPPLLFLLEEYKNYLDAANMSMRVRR

Brain-derived neurotrophic factor (mature BDNF)
ka [1]: 378000 M⁻¹ s⁻¹
kd [1]: 0.0159 s⁻¹
ka [2]: 36300 M⁻¹ s⁻¹
kd [2]: 0.000444 s⁻¹

B1: recombinant human neurotrophin-4 (NT-4) (ligand)
chain: GVSETAPASRRGELAVCDAVSGWVTDRRTAVDLRGREVEVLGEVPAAGGSPLRQYFFETRCKADNAEEGGPGAGGGGCRGVDRRHWVSECKAKQSYVRALTADAQGRVGWRWIRIDTACVCTLLSRTGRA
Kd [3]: 230 nM

B2: brain-derived neurotrophic factor (BDNF), recombinant human (ligand)
chain: HSDPARRGELSVCDSISEWVTAADKKTAVDMSGGTVTVLEKVPVSKGQLKQYFYETKCNPMGYTKEGCRGIDKRHWNSQCRTTQSYVRALTMDSKKRIGWRFIRIDTSCVCTLTIKRGR
modifications: mature BDNF; non-covalent homodimer, three intrachain disulfides per chain; a recombinant N-terminal Met is not stated
Kd [4]: 42.1 nM
koff [4]: 0.0159 s⁻¹
kon [4]: 378000 M⁻¹ s⁻¹
Kd [5]: 12.2 nM
koff [5]: 0.000444 s⁻¹
kon [5]: 36300 M⁻¹ s⁻¹

Source: paper PMC5454954, “BDNF Binds Its Pro-Peptide with High Affinity and the Common Val66Met Polymorphism Attenuates the Interaction” (International Journal of Molecular Sciences, 2017)
